Common to all, as to assay: cell-based or functional assay
Assay [1] concerns the target RSV F glycoprotein of MARM v1269 (strain A2 escape mutant, substitution at aa 389) (respiratory syncytial virus strain A2), P03420.
In assay [2] the target is RSV F glycoprotein of MARM v1302A/1 (strain A2 escape mutant, substitutions at aa 241/421) (respiratory syncytial virus strain A2), P03420.
The target in assay [3] is RSV F glycoprotein of MARM v1302A/6 (strain A2 escape mutant, substitutions at aa 241/421) (respiratory syncytial virus strain A2), P03420.
Assay [4] addresses RSV F glycoprotein of MARM v1308F (strain A2 escape mutant, substitutions at aa 241/421) (respiratory syncytial virus strain A2), P03420.

B1: human monoclonal Fab RSVF2-5 (Fab, V domains shown)
VH: LEESGGDLVQPGRSLRLSCSTSGFSFGDYPVNWFRQAPGKGLEWLGIVRSRLYGGTLQYAASVEGRFTISRDDSKSIAYLHMNSLKSEDTAVYYCGVPVANIDYWGQGTLVTVSSASTKGPSS
VL: LTQPHSVSESLGKTVTISCTRAGGRIASNYVQWYQQRPGSSPTTVIYEDNQRPFGVPDRFSGSIDTSSNSASLTISGLKTEDEADYYCQSYDSENPWVFGGGTKLTVLG
B1: the Dose for 60% plaque reduction in assay [1] is < 0.3 µg/mL; in assay [2], 1.4 µg/mL; in assay [3] it was < 0.3 µg/mL; in assay [4] it was 1 µg/mL.

These data come from patent US20040005324A1.
